We go through two molecules from PMC9512822, “Redβ177 annealase structure reveals details of oligomerization and λ Red-mediated homologous DNA recombination” (Nature Communications, 2022).

The target of one data set is T1, Redβ177 (Escherichia coli bacteriophage lambda, UniProt P03698 1-177).
T1 sequence: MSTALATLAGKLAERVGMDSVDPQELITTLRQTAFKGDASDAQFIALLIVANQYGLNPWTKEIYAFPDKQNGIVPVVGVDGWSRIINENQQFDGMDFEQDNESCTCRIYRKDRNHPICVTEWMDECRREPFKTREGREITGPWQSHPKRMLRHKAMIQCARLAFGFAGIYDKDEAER
The data set is described as follows: cryo-EM structure (helical reconstruction, 3.3 Å); 5 mM MgCl2; Redβ177:Oligo 1:Oligo 2 7.7:1:1; 4 bp per monomer; base identity averaged, arbitrary sequence modelled; 20 mM KH2PO4 pH 6.0, 5 mM MgCl2; 30 min at room temperature with each oligo, then dialysis overnight at 4 °C. The settings on record: protein: recombinant; tags: C-terminal His6; blunt.

Data set [1] deals with the molecule itself. The data set is described as follows: cryo-EM structure; purified Redβ177 incubated in turn with two complementary 27mer oligonucleotides (molar ratio 7.7:1:1) in 20 mM KH2PO4 pH 6.0, 5 mM MgCl2, room temperature, then dialysed overnight at 4 °C; helical reconstruction of the 1-start left-handed helix, 3.3 Å; a 2-start assembly was seen only in 2D classes.

B1: Oligo 1 + Oligo 2 annealing intermediate (27mer) (dsDNA)
DNA 1: TGCAGCAGCTTTACCATCTGCCGCTGG
DNA 2: CCAGCGGCAGATGGTAAAGCTGCTGCA
For B1, in the data set with Redβ177, the binding result was “binds”.

B2: Redβ177-His6 (N-terminal residues 1-177 of the Redβ annealase of bacteriophage λ) (domain or fragment, bacteriophage lambda (phage λ), UniProt P03698 1-177, looked up)
chain: MSTALATLAGKLAERVGMDSVDPQELITTLRQTAFKGDASDAQFIALLIVANQYGLNPWTKEIYAFPDKQNGIVPVVGVDGWSRIINENQQFDGMDFEQDNESCTCRIYRKDRNHPICVTEWMDECRREPFKTREGREITGPWQSHPKRMLRHKAMIQCARLAFGFAGIYDKDEAER
notes: Redβ (Beta) annealase, product of the bet gene of bacteriophage lambda, UniProtKB P03698, N-terminal residues 1-177 (C-terminally truncated); The molecule forms a helical filament of no fixed number of subunits; Residues 3-169 were modelled, except 133-138; also called Redβ177-6xHis; Redβ N-terminal domain; not shown: His6, C-terminal, kept
With B2, in data set [1], the binding result is “binds”.
